Experimental findings from publication PMC3580588, “Fully recombinant IgG2a Fc multimers (stradomers) effectively treat collagen-induced arthritis and prevent idiopathic thrombocytopenic purpura in mice” (Arthritis Research & Therapy, 2012) are described below.

By Kd is commonly meant the concentration at which binding is half-saturated. The stoichiometry N is the number of molecules, sites or subunits per partner or assembly.

T1: recombinant mouse FcγRI (mouse, UniProt P26151 25-297)
T1 construct: mouse Fc gamma receptor I, recombinant; source: bought: R&D Systems
T1 sequence (looked up): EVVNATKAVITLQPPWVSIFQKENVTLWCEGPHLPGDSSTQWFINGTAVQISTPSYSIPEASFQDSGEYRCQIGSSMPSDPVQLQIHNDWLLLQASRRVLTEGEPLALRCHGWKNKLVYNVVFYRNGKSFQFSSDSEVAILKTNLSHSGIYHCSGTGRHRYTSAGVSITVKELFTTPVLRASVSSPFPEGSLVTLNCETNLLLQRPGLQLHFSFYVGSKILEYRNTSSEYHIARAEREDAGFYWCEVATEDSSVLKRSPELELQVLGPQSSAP

T2: recombinant mouse SIGN-R1 (mouse), Q8CJ91
T2 chain: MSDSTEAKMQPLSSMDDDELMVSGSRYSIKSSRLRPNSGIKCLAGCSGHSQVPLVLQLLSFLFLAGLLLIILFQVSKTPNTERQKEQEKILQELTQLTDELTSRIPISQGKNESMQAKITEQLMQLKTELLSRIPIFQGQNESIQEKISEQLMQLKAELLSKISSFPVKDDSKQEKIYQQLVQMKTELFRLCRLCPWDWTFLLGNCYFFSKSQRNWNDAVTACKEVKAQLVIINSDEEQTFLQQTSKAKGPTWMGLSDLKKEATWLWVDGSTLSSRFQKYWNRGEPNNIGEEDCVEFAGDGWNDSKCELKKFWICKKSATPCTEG

B1: recombinant mouse FcγRIV (receptor, UniProt A0A0B4J1G0 21-203, looked up)
chain: GLQKAVVNLDPKWVRVLEEDSVTLRCQGTFSPEDNSIKWFHNESLIPHQDANYVIQSARVKDSGMYRCQTALSTISDPVQLEVHMGWLLLQTTKWLFQEGDPIHLRCHSWQNRPVRKVTYLQNGKGKKYFHENSELLIPKATHNDSGSYFCRGLIGHNNKSSASFRISLGDPGSPSMFPPWHQ
notes: mouse Fc gamma receptor IV, recombinant; source: bought: R&D Systems
B2: recombinant mouse FcγRIII (receptor, UniProt P08508 31-215, looked up)
chain: ALPKAVVKLDPPWIQVLKEDMVTLMCEGTHNPGNSSTQWFHNGRSIRSQVQASYTFKATVNDSGEYRCQMEQTRLSDPVDLGVISDWLLLQTPQRVFLEGETITLRCHSWRNKLLNRISFFHNEKSVRYHHYKSNFSIPKANHSHSGDYYCKGSLGSTQHQSKPVTITVQDPATTSSISLVWYHT
notes: mouse Fc gamma receptor III, recombinant; His tag and catalogue number are told for the biolayer interferometry only; also called His-tagged mouse FcγRIII; source: bought: R&D Systems
B3: recombinant mouse FcγRIIb (receptor, UniProt P08101 30-210, looked up)
chain: THDLPKAVVKLEPPWIQVLKEDTVTLTCEGTHNPGNSSTQWFHNGRSIRSQVQASYTFKATVNDSGEYRCQMEQTRLSDPVDLGVISDWLLLQTPQLVFLEGETITLRCHSWRNKLLNRISFFHNEKSVRYHHYSSNFSIPKANHSHSGDYYCKGSLGRTLHQSKPVTITVQGPKSSRSLP
notes: mouse Fc gamma receptor IIb, recombinant; His tag and catalogue number are told for the biolayer interferometry only; also called His-tagged mouse FcγRIIb; source: bought: R&D Systems
B4: 2A-ILZN: stradomer with the isoleucine zipper linked to the amino terminus of murine IgG2a Fc (Fc fusion)
chain: EPRGPTIKPCPPCKCPAPNLLGGPSVFIFPPKIKDVLMISLSPIVTCVVVDVSEDDPDVQISWFVNNVEVHTAQTQTHREDYNSTLRVVSALPIQHQDWMSGKEFKCKVNNKDLPAPIERTISKPKGSVRAPQVYVLPPPEEEMTKKQVTLTCMVTDFMPEDIYVEWTNNGKTELNYKNTEPVLDSDGSYFMYSKLRVEKKNWVERNSYSCSVVHEGLHNHHTTKSFSRTPGK
modifications: not checked
B5: recombinant murine IgG2a Fc (domain or fragment, mouse, UniProt P01863 98-330, looked up)
chain: B4 chain
notes: murine IgG2a Fc: hinge, CH2 and CH3 domains, no Fab region; Runs as a homodimer (45 kDa) on non-reducing SDS-PAGE, with a weaker band at about 90 kDa; source: recombinant, from a cDNA construct; host and purification are stated for the stradomers only (HEK293, protein A-derived column)
B6: 2A-ILZC: stradomer with the isoleucine zipper linked to the carboxy terminus of murine IgG2a Fc (Fc fusion)
chain: B4 chain
modifications: not checked

The target of data set [1] is T1, recombinant mouse FcγRI. Nature of the data set: SPR; Biacore 3000 or T100; receptors immobilised by amine coupling on CM4 (FcγRs) or CM5 (SIGN-R1) chips; samples 1,000 nM to 0.5 nM in HBS-EP at 20 μl/min; 1:1 Langmuir kinetic model; molecular mass of 50 kDa assigned to homodimer isolates and 150 kDa to all other preparations. A general note: In SPR one partner is held on a chip, and binding of the other changes the refractive index at the surface.

The target in data set [2] is recombinant mouse FcγRIV (mouse). Described as above.
Data set [3] addresses recombinant mouse FcγRIIb (mouse) (UniProt P08101). The data set is described as above.
In data set [4] the target is recombinant mouse FcγRIII (mouse) (UniProt P08508). The description is as above.
The target in data set [5] is recombinant mouse SIGN-R1 (mouse) (UniProt Q8CJ91). The data set is described as above.
The target of data set [6] is recombinant mouse FcγRI (mouse) (UniProt P26151). The data set is described as above.
Data set [7] addresses B5. Described as above. To be noted: both partners purified.
Data set [8] has as its target T2, recombinant mouse SIGN-R1 (mouse), …. The data set is described as above.
Data set [9] deals with the molecule itself. Nature of the data set: SDS-PAGE, nonreduced against reduced; 0.5 to 2 μg of purified protein on 4-12% Bis-Tris gels, Coomassie stain; multimers present under denaturing but not reducing conditions (covalently linked).

Where two headings read alike, the source gives them in different places.

Regarding “2A-2HC: stradomer with hinge of human IgG2 linked to the carboxy terminus of murine IgG2a Fc (unfractionated) (Fc fusion)”, the Kd in data set [1] came to 9.12 nM; in data set [2], 3.03 nM; in data set [3], 3.3 nM; in data set [4], 4.2 nM.
As for “2A-2HN: stradomer with hinge of human IgG2 linked to the amino terminus of murine IgG2a Fc (Fc fusion)”, the Kd in data set [1] was 16.3 nM; in [2], 7.6 nM; in data set [5] it was 109 nM; in [3], 3.4 nM; in data set [4] it was 4.4 nM.
As for “2A-ILZC: stradomer with the isoleucine zipper linked to the carboxy terminus of murine IgG2a Fc (Fc fusion)”, the Kd in data set [2] came out at 63.6 nM; in data set [6], 63.4 nM; in data set [3], 455 nM; in data set [4], 151 nM.
Taken in the same sequence, the figures for “2A-ILZN: stradomer with the isoleucine zipper linked to the amino terminus of murine IgG2a Fc (Fc fusion)” were 0.46 nM, 6.71 nM, 3.8 nM and 2.3 nM.
For the molecule B1, the Kd in data set [7] is 27.8 nM.
Same read-out and setting: with B2 the figure was 248 nM.
Still for that read-out and setting: with B3 the figure was 289 nM.
B4: in data set [8], the Kd turned out to be 134 nM.
As to B5, the Kd in data set [1] (both partners purified) came out at 17.4 nM. The “stoichiometry N” value in [9] stood at 2.
With B6, in [8], the Kd worked out at 43.9 nM.
